Common to all, as to experiment: Kinase Profiling Assay
What all share (format): biochemical
Holding throughout (settings): peptide 100 μM

In assay [1] the target is CDK1/cyclinB(h) (Homo sapiens, UniProt P06493). The essentials: (§1)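 Duplicate wells; [radiolabeled] ATP phosphate onto cationic substrate; filter capture (negatively charged membrane); scintillation count; % of 100% activity control. Selectivity screen of MK2 peptide inhibitors, 266 human kinases.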
In assay [2] the target is T1, PrKX(h) (Homo sapiens, UniProt P51817).
T1 sequence (P51817 1-358): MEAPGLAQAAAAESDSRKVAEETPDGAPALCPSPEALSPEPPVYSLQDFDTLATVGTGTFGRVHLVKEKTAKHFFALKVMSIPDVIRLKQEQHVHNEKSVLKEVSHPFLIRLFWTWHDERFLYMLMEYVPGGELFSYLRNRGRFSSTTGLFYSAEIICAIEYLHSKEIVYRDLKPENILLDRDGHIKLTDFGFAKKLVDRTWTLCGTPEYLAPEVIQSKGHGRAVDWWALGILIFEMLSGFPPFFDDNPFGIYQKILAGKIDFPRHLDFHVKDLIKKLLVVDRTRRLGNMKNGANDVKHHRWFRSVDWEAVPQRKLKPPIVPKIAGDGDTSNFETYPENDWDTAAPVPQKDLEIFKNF
The essentials: as §1

Assay [3] concerns the target PKBγ(h) (Homo sapiens, UniProt Q9Y243). In a few lines: as §1
Assay [4] concerns the target ROCK-II(h) (Homo sapiens, UniProt O75116). In a few lines: as §1
For assay [5], the target named is Ax1(h) (Homo sapiens, UniProt P30530). The essentials: as §1
Assay [6] has as its target T2, Tie2(h) (Homo sapiens, UniProt Q02763).
T2 construct: purchased Millipore
In a few lines: as §1

The target in assay [7] is T3, GRK7(h) (Homo sapiens, UniProt Q8WTQ7).
T3 construct: purchased Millipore
T3 sequence (Q8WTQ7 1-553): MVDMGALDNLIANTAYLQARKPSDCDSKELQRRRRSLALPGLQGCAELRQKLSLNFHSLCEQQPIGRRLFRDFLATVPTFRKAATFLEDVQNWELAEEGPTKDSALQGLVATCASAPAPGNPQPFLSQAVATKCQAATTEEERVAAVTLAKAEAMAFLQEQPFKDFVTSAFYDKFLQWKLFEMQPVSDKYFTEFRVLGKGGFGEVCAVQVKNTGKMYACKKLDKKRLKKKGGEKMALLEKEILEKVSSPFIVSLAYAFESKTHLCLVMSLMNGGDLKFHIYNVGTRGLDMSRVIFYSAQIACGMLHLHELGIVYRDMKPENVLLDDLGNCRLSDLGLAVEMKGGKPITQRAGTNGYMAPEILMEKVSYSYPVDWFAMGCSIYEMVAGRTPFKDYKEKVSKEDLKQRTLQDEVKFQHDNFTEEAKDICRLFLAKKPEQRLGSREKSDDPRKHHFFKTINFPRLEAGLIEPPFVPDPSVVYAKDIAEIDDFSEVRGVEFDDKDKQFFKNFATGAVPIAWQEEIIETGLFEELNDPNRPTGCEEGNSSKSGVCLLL
The essentials:
as §1

Assay [8] addresses AMPKα1(h) (Homo sapiens, UniProt Q13131). In a few lines:
as §1

Assay [9] concerns the target T4, IGF-1R(h), activated (Homo sapiens, UniProt P08069).
T4 construct: purchased Millipore
In a few lines:
as §1

In assay [10] the target is T5, PKD2(h) (Homo sapiens, UniProt Q9BZL6).
T5 sequence (Q9BZL6 1-878): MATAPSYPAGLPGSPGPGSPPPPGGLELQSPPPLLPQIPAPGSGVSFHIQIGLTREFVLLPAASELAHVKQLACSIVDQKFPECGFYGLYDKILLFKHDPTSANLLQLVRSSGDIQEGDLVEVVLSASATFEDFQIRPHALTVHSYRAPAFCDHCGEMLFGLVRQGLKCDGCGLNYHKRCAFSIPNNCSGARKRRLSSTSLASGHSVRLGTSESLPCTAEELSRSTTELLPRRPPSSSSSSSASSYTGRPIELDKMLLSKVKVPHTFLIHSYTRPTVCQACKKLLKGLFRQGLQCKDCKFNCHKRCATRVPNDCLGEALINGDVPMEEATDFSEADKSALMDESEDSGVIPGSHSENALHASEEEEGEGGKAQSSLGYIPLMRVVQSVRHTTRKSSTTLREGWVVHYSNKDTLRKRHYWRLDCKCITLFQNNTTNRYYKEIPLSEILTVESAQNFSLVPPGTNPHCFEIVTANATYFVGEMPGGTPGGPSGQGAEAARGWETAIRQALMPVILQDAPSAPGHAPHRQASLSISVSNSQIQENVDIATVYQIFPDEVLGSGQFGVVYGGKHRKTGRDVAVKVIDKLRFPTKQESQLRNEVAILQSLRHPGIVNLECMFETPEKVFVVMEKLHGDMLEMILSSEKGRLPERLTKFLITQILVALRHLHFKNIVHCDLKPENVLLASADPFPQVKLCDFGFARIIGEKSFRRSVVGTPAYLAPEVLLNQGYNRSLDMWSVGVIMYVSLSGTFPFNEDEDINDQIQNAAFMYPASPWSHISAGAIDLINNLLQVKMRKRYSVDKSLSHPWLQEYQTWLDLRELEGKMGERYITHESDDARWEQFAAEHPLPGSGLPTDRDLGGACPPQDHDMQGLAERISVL
In a few lines:
as §1

The target in assay [11] is EGFR(T790M, L858R)(h) (Homo sapiens, UniProt P00533, L858R/T790M). In a few lines:
as §1

The target in assay [12] is PKCθ(h) (Homo sapiens, UniProt Q04759). In a few lines:
as §1

For assay [13], the target named is CaMKIIγ(h) (Homo sapiens, UniProt Q13555). In a few lines: as §1
Sequence of CaMKIIγ(h) (Q13555 whole entry): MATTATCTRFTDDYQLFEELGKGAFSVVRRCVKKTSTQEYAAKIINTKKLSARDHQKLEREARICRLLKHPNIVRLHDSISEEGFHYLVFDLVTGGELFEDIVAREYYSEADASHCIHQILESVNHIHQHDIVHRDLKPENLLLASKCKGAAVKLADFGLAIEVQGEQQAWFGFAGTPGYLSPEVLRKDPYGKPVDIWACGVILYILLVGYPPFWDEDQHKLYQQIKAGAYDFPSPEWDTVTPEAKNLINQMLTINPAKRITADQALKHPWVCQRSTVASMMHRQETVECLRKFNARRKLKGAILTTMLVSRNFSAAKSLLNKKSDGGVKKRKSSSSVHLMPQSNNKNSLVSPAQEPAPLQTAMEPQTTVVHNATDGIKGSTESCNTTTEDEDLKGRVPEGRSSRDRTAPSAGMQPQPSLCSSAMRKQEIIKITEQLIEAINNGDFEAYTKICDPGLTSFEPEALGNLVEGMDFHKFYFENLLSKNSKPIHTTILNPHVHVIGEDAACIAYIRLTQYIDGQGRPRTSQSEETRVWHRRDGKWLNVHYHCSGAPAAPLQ
For assay [14], the target named is T6, HIPK1(h) (Homo sapiens, UniProt Q86Z02).
T6 construct: purchased Millipore
The essentials:
as §1

Assay [15] addresses CDK2/cyclinA(h) (Homo sapiens, UniProt P24941). The essentials: as §1

No end group written: not given here.

Sequence of AMPKα1(h) (Q13131 whole entry): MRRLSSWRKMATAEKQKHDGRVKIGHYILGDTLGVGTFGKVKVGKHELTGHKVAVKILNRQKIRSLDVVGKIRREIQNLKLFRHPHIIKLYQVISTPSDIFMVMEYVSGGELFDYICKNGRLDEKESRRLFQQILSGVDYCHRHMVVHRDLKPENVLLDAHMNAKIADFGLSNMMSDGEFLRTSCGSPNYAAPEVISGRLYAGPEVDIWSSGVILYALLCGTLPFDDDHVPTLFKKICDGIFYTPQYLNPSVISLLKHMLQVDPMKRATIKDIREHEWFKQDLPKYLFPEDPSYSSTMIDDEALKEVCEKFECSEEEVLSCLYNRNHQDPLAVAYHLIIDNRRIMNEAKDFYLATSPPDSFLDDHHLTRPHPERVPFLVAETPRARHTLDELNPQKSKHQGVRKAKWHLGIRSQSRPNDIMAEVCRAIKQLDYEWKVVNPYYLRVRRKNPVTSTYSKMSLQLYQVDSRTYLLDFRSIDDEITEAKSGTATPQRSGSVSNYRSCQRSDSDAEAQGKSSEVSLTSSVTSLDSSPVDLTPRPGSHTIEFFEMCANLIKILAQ
Sequence of AMPKα1(h) (Q9Y478 whole entry partner): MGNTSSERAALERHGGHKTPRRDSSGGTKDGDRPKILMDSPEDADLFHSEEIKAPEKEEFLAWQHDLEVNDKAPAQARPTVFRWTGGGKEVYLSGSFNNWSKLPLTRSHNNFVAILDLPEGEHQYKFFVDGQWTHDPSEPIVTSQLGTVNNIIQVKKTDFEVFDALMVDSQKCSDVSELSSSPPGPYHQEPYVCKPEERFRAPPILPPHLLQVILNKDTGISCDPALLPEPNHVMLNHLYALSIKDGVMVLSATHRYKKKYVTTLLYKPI
Sequence of AMPKα1(h) (P54619 whole entry partner): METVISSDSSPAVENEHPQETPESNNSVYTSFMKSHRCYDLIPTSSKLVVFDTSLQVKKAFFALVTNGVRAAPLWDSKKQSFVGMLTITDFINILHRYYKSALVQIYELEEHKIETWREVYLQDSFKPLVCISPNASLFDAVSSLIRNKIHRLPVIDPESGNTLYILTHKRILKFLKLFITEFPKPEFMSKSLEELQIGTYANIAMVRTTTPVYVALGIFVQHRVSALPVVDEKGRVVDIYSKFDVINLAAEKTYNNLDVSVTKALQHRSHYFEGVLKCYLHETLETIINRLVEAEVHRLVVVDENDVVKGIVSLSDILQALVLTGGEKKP
Sequence of ROCK-II(h) (O75116 whole entry): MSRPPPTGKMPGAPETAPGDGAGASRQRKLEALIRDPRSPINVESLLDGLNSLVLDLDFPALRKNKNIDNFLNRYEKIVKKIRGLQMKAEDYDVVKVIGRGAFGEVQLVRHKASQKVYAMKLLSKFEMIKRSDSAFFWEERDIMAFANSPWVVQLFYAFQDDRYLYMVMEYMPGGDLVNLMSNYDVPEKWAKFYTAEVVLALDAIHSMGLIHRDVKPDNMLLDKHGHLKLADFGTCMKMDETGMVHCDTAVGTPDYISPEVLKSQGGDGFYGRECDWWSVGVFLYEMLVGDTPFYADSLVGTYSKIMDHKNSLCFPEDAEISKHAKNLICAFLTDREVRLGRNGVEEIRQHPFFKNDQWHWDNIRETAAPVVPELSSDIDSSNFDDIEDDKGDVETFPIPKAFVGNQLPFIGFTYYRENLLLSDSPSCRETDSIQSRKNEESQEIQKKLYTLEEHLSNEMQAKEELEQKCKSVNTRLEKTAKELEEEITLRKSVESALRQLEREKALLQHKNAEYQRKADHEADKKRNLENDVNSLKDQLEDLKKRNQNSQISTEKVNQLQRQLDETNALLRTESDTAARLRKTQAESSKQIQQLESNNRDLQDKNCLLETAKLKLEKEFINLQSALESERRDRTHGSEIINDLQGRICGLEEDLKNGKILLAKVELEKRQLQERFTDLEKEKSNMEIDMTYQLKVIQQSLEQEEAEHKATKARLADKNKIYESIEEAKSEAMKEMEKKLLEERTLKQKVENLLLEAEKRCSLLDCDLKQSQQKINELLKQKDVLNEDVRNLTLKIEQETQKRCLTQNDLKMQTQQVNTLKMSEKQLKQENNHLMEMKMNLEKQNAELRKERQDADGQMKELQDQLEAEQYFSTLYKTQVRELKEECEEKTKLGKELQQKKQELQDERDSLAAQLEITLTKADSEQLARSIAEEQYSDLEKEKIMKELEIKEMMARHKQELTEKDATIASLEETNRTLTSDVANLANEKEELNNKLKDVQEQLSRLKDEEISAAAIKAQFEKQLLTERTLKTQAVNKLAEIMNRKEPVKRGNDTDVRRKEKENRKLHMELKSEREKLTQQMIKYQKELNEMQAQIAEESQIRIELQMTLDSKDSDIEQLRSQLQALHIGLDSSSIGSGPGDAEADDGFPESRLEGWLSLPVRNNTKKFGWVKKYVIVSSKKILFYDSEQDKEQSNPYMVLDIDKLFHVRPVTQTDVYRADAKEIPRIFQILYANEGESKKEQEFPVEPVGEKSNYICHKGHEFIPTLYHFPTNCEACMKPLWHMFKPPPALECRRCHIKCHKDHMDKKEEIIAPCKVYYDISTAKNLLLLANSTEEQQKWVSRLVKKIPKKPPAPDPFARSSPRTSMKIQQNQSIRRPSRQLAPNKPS
T4 sequence (P08069 959-1367 limits assumed): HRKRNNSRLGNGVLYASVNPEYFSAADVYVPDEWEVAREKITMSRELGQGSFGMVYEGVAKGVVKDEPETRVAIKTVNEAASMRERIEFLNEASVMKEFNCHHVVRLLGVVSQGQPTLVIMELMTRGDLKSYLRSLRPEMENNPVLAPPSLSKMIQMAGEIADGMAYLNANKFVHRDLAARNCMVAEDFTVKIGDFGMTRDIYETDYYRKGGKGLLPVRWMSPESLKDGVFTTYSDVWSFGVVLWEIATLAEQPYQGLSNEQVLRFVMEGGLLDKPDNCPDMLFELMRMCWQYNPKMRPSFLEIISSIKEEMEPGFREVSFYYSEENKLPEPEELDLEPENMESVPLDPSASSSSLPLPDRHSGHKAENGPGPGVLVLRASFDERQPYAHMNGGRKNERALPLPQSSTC
T2 sequence (Q02763 23-1124): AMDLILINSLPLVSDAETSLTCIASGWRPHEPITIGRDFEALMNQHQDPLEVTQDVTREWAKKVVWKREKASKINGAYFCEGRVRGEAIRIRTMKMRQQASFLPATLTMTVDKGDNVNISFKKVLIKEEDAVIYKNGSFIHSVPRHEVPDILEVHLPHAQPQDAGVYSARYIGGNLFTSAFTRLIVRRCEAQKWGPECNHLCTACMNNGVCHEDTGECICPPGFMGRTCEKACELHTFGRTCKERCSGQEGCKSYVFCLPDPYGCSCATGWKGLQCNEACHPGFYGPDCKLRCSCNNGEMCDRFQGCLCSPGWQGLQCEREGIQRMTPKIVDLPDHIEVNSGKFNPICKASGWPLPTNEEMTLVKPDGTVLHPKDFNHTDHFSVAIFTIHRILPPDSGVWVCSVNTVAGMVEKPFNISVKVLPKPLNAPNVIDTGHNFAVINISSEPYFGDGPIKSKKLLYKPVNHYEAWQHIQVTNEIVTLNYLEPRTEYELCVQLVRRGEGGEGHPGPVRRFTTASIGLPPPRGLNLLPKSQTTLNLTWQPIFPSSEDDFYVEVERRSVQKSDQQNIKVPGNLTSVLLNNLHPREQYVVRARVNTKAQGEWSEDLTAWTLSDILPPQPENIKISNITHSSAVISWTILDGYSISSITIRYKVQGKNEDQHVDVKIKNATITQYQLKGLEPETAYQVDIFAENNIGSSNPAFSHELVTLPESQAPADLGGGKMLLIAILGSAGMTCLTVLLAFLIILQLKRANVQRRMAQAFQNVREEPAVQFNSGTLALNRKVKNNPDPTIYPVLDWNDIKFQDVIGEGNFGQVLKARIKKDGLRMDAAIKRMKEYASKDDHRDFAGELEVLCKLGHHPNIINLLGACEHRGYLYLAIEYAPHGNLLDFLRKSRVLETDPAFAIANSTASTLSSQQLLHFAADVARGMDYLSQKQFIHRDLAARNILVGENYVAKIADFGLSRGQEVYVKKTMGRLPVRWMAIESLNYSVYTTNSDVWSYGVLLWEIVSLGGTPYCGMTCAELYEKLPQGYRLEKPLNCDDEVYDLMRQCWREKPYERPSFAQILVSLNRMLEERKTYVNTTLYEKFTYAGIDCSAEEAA

On to FAKLAARLYRKALARQLGVAA [MMI-0300], for which the “% activity” value is on record as 73% in [1]; 61% in [2]; 20% in assay [3]; 74% in assay [4]; 52% in [5]; 26% in assay [6]. Further, the “% activity” value in assay [7] turned out to be 122%; in assay [8], 71%; in assay [9] it was 80%; in [10], 33%; in [11], 85%; in assay [12], 88%. The “% activity” value in [13] worked out at 5%; in [14], 74%; in assay [15], 86%.

With “HRRIKAWLKKIKALARQLGVAA (Mammal) [MMI-0500]”, the “% activity” value is 57% in assay [1]; 57% in assay [2]; 20% in assay [3]; 2% in [4]; 12% in [5]; 22% in assay [6]. In addition, the “% activity” value was 93% in [7]; 35% in [8]; 45% in [9]; 10% in assay [10]; 53% in assay [11]; 62% in assay [12]. Besides, the “% activity” value in [13] is on record as 3%; in assay [14], 47%; in assay [15], 87%.

Turning to KAFAKLAARLYRKALARQLGVAA [MMI-0400], the “% activity” value came out at 74% in assay [1]; 76% in [2]; 41% in assay [3]; 77% in assay [4]; 41% in assay [5]; 21% in [6]. Further, the “% activity” value in [7] stood at 100%; in assay [8] it was 87%; in assay [9], 77%; in assay [10] it was 25%; in assay [11], 78%; in assay [12], 76%. For the same sequence, the “% activity” value in assay [13] was found to be 3%; in assay [14], 91%; in assay [15], 92%.

As for YARAAARQARAKALARQLGVAA [MMI-0100], the “% activity” value was found to be 84% in [2]; 81% in assay [5]; 28% in [6]; 126% in assay [9]; 84% in [10]; 94% in [14].

Take “YARAAARQARAKALNRQLGVA (Mammal) [MMI-0200]”: the “% activity” value in [4] amounted to 85%; in [5] it was 99%; in assay [6] it was 53%; in assay [7], 124%; in assay [8], 108%; in [9], 94%. The “% activity” value is recorded as 78% in assay [10], 108% in assay [11], 101% in [12] and 94% in assay [13].

The record behind these values is patent publication US20150258192A1, “COMPOSITIONS AND METHODS FOR PREVENTING OR TREATING CHRONIC LUNG ALLOGRAFT DYSFUNCTION (CLAD) AND IDIOPATHIC PULMONARY FIBROSIS (IPF)” (priority 2014, published 2015).
